Assay [1] deals with T1, human Trop-2 (human, UniProt P09758 27-323).
T1 sequence (looked up): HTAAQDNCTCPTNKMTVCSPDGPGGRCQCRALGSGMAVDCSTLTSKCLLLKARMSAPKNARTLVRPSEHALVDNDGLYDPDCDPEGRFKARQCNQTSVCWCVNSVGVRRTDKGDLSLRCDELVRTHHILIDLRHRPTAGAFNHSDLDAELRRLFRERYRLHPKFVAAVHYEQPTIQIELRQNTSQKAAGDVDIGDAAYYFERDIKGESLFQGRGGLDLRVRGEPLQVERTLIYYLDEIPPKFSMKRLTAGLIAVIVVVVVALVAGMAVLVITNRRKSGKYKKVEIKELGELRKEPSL
As to the kind of experiment: cell-based or functional assay.

Another assay concerns the target mouse CD3 (mouse, UniProt P22646 22-108). As to the kind of experiment: not described (data not shown).
The target in a further assay is T2, mouse Trop-2 (mouse, UniProt Q8BGV3 25-270, limits assumed).
T2 sequence (looked up): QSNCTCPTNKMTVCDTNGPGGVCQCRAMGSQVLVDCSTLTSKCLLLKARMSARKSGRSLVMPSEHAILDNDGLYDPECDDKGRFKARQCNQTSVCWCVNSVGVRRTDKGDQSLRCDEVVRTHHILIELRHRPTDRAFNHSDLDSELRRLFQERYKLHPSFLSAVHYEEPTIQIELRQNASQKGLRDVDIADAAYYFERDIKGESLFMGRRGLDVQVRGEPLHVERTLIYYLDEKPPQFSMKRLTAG
As to the kind of experiment: not described (data not shown).

For assay [2], the target named is T1, human Trop-2. The assay is described as follows: cell-based or functional assay. This is another data set of the same source.

The values below come from patent US20180118846A1 (published 2018).

mouse CD3, sequence (P22646 22-108): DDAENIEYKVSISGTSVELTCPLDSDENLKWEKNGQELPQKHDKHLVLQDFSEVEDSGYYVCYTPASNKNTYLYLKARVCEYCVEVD

B1: (E1)-3s, anti-Trop-2 x anti-CD3 trivalent bispecific DNL complex (two CH1-DDD2-Fab-hRS7 + one scFv-AD2-Okt3) (bispecific antibody)
heavy (part 1 of 2): QVQLQQSGSELKKPGASVKVSCKASGYTFTNYGMNWVKQAPGQGLKWMGWINTYTGEPTYTDDFKGRFAFSLDTSVSTAYLQISSLKADDTAVYFCARGGFGSSYWYFDVWGQGSLVTVSS
heavy (part 2 of 2): not shown
light: DIQLTQSPSSLSASVGDRVSITCKASQDVSIAVAWYQQKPGKAPKLLIYSASYRYTGVPDRFSGSGSGTDFTLTISSLQPEDFAVYYCQQHYITPLTFGAGTKVEIK
scFv: not shown
notes: also called (E1)-35; TROP2-targeting bsAb; not shown: human CH1, first 4 hinge residues and Gly/Ser linker; human kappa constant domain
On to B1, for which, in the assay with human Trop-2 [1], the “ex vivo T cell redirected killing of BxPC3, donor 1, IC50” value is 1.06 pM; the “ex vivo T cell redirected killing of BxPC3, donor 2, IC50” value was 0.56 pM; the “ex vivo T cell redirected killing of BxPC3, donor 3, IC50” value is 0.32 pM; the “ex vivo T cell redirected killing of Capan-1, donor 1, IC50” value was 35.6 pM. In the assay with human Trop-2 [1], the “ex vivo T cell redirected killing of Capan-1, donor 2, IC50” value amounted to 248 pM; the “ex vivo T cell redirected killing of Capan-1, donor 4, IC50” value turned out to be 8.51 pM; the “ex vivo T cell redirected killing of NCI-N87, donor 1, IC50” value came to 6.76 pM; the “ex vivo T cell redirected killing of NCI-N87, donor 2, IC50” value was determined as 34 pM. The binding result in the assay with mouse CD3 is given as “no binding”. In addition, the binding result with mouse Trop-2 is “no binding”. Besides, in the assay with human Trop-2 [2], the “T-cell killing of BxPC3, IC50” value came out at 0.4 pM; the “T-cell lysis of NCI-N87, very active donor, IC50” value was determined as 0.37 pM; the “T-cell lysis of NCI-N87, very active donor, with 0.1 nM 20*-2b, IC50” value is 0.05 pM; the “T-cell lysis of NCI-N87, very active donor, with 0.1 nM peginterferonalfa-2a, IC50” value stood at 0.14 pM. For the same molecule, in the assay with human Trop-2 [2], the “T-cell lysis of NCI-N87, very weak donor T cells, EC50” value came out at 39 pM; the “T-cell lysis of NCI-N87, very weak donor T cells, with peginterferonalfa-2a, EC50” value is 1.4 pM; the “T-cell mediated lysis of Capan-1, IC50” value stood at 29 pM; the “T-cell mediated lysis of NCI-N87, IC50” value was determined as 0.85 pM.
